substrate: p-NP-C4; details: pH 7; 37 °C

Row | Protein | Km [µM] | kcat [s⁻¹] | kcat/Km [M⁻¹ s⁻¹]
1 | unnamed (protein) MMNFNNVFRWHLPFLFLVLLTFRAAAADTLLILGDSLSAGYRMSASAAWPALLNDKWQSKTSVVNASISGDTSQQGLARLPALLKQHQPRWVLVELGGNDGLRGFQPQQTEQTLRQILQDVKAANAEPLLMQIRLPANYGRRYNEAFSAIYPKLAKEFDVPLLPFFMEEVYLKPQWMQDAGIHPNRDAQPFIADWMAKQLQPLVNHDS | 1880 | 5.98 | 3180
2 | unnamed (protein) MMNFNNVFRWHLPFLFLVLLTFRAAAADTLLILGDALSAGYRMSASAAWPALLNDKWQSKTSVVNASISGDTSQQGLARLPALLKQHQPRWVLVELGGNDGLRGFQPQQTEQTLRQILQDVKAANAEPLLMQIRLPANYGRRYNEAFSAIYPKLAKEFDVPLLPFFMEEVYLKPQWMQDDGIHPNRDAQPFIADWMAKQLQPLVNHDS | 1550 | 0.16 | 103
3 | unnamed (protein) MMNFNNVFRWHLPFLFLVLLTFRAAAADTLLILGDSLSAGYRMSASAAWPALLNDKWQSKTSVVNASISGDTSQQGLARLPALLKQHQPRWVLVELGGADGLRGFQPQQTEQTLRQILQDVKAANAEPLLMQIRLPANYGRRYNEAFSAIYPKLAKEFDVPLLPFFMEEVYLKPQWMQDDGIHPNRDAQPFIADWMAKQLQPLVNHDS | 1660 | 12 | 7220
4 | unnamed (protein) MMNFNNVFRWHLPFLFLVLLTFRAAAADTLLILGDSLSAGYRMSASAAWPALLNDKWQSKTSVVNASISADTSQQGLARLPALLKQHQPRWVLVELGGNDGLRGFQPQQTEQTLRQILQDVKAANAEPLLMQIRLPANYGRRYNEAFSAIYPKLAKEFDVPLLPFFMEEVYLKPQWMQDDGIHPNRDAQPFIADWMAKQLQPLVNHDS | 1100 | 3.16 | 2870
5 | unnamed (protein) MMNFNNVFRWHLPFLFLVLLTFRAAAADTLLILGDSLSAGYRMSASAAWPALLNDKWQSKTSVVNASISGDTSQQGLARLPALLKQHQPRWVLVELGGNDGLRGFQPQQTEQTLRQILQDVKAANAEPLLMQIRLPANYGRRYNEAFSAIYPKLAKEFDVPLLPFFMEEVYLKPQWMQDDGIAPNRDAQPFIADWMAKQLQPLVNHDS | 610 | 0.0093 | 15.2
6 | unnamed (protein) MMNFNNVFRWHLPFLFLVLLTFRAAAADTLLILGDSLSAGYRMSASAAWPALLNDKWQSKTSVVNASISGDTSQQGLARLPALLKQHQPRWVLVELGGNDGLRGFQPQQTEQTLRQILQDVKAANAEPLLMQIRLPANYGRRYNEAFSAIYPKLAKEFDVPLLPFFMEEVYLKPQWMQDDGIHPNRDAQPFIADWMAKQLQPLVNHDS | 870 | 15.3 | 17600
